The values below come from paper PMC5665649 (eLife, 2017).

Read-outs that look alike come from different tables or passages of the source.

Data set [1] addresses GluA2 amino terminal domain (ATD), DyLight 488-labeled. Kind of data set: AUC; homodimer KD of GluA2 as given in Table 2 under UL GluA2 and DL-GluA2; the experiment itself is not described in this paper.
The target is the same in data set [2]. Kind of data set: AUC; direct Lamm equation fits, done here, of previously reported SV data for GluA2 (Zhao et al., 2013d) and GluA3 (Zhao et al., 2012); homodimer.
The target in data set [3] is EGFP-GluA1 amino terminal domain fusion protein (UniProt P19490). Kind of data set: AUC; FDS-SV titration for hetero-dimerization: constant low concentration (50 pM-1 nM) of the ATD carrying the fluorophore, unlabeled partner from 0.2 nM up to µM; sw isotherm fit with coupled competitive homo- and hetero-dimerization model, homodimer KD fixed; 20 °C, 50,000 rpm, 0.1 mg/mL BSA.

The target in data set [4] is GluK1 amino terminal domain (ATD) G213N/M215T, DyLight 488-labeled. The description is as above.
Data set [5] addresses GluK2 amino terminal domain (ATD) G215N/M217T, DyLight 488-labeled (UniProt P42260). The data set is described as above.
In data set [6] the target is GluA3 amino terminal domain (ATD), unlabeled. Kind of data set: AUC; direct Lamm equation fits, done here, of previously reported SV data for GluA2 (Zhao et al., 2013d) and GluA3 (Zhao et al., 2012); homodimer.
The target of data set [7] is EGFP-GluA4 amino terminal domain fusion protein (UniProt P19493). Kind of data set: AUC; FDS-SV titration for hetero-dimerization: constant low concentration (50 pM-1 nM) of the ATD carrying the fluorophore, unlabeled partner from 0.2 nM up to µM; sw isotherm fit with coupled competitive homo- and hetero-dimerization model, homodimer KD fixed; 20 °C, 50,000 rpm, 0.1 mg/mL BSA.
EGFP-GluA4 amino terminal domain fusion protein, sequence (P19493 21-413): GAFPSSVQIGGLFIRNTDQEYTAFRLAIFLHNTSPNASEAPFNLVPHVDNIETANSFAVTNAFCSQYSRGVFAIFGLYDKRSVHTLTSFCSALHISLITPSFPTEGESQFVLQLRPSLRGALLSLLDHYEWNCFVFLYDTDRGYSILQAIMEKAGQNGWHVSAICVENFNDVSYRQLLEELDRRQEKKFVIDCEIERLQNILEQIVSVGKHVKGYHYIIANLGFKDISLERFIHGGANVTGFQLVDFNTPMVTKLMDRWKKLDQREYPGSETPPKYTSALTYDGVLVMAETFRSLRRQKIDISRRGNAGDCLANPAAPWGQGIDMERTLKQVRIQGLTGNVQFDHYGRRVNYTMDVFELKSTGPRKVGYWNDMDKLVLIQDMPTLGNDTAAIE

The target of data set [8] is GluA2 amino terminal domain (ATD), DyLight 488-labeled. The description is as above.
Data set [9] concerns the target GluK4 amino terminal domain (ATD), unlabeled (UniProt Q01812). Kind of data set: AUC; sedimentation velocity with absorbance detection at 280 nm, unlabeled GluK4 0.3-29 µM; 20 °C, 50,000 rpm.
For data set [10], the target named is GluK5 ATD (Rattus norvegicus) (UniProt Q63273). Conditions: cited from earlier work.
In data set [11] the target is GluK2 ATD (Rattus norvegicus) (UniProt P42260). As to conditions: cited from earlier work.
Data set [12] concerns the target GluK1 amino terminal domain (ATD) G213N/M215T, DyLight 488-labeled. Kind of data set: AUC; fluorescence-detected sedimentation velocity (FDS-SV), tracer titration for self-association: 0.2-1 nM DyLight 488-labeled ATD with a series of the same unlabeled ATD; sw isotherm fit with monomer-dimer model (dimer to monomers); 20 °C, 50,000 rpm, 0.1 mg/mL BSA.
Data set [13] concerns the molecule itself. Kind of data set: AUC; FDS-SV, dilution series of the fluorescent protein alone (DyLight 488-GluK3 50 pM-1.2 µM; EGFP-GluA1 100 pM-1.2 µM; EGFP-GluA4 500 pM-1.2 µM); c(s) and sw isotherm, monomer-dimer model (dimer to monomers); 20 °C, 50,000 rpm, 0.1 mg/mL BSA.
Data set [14] has as its target T1, GluK2 amino terminal domain (ATD) G215N/M217T, DyLight 488-labeled (UniProt P42260 32-420, G215N | M217T, DyLight 488 (NHS ester-activated), labeling ratios typically 0.9-1.3, sites not stated).
T1 construct: signal peptide in the construct; GluK2 kainate receptor ATD cDNA with native signal peptide, last residue Lys389; N-linked glycosylation site inserted in the lateral face; Same construct as m3, chemically labeled; also called DL-GluK2; DyLight 488-labeled GluK2; source: HEK cell suspension cultures, transient transfection (PEI), secreted into medium; purified (Ni2+ HiTrap chelating, thrombin …)
T1 sequence (looked up): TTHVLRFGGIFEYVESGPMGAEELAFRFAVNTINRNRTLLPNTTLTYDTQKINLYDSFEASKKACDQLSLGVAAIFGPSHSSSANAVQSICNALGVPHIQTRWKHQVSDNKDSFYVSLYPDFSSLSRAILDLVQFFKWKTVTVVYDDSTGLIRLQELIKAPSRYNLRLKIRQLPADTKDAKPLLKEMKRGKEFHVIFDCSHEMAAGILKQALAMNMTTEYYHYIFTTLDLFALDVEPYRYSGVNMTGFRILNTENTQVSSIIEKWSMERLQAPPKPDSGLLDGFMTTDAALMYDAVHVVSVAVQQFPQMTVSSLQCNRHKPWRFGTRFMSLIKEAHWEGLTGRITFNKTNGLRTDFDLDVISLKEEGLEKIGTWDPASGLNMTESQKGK
Kind of data set: AUC; fluorescence-detected sedimentation velocity (FDS-SV), tracer titration for self-association: 0.2-1 nM DyLight 488-labeled ATD with a series of the same unlabeled ATD; sw isotherm fit with monomer-dimer model (dimer to monomers); 20 °C, 50,000 rpm, 0.1 mg/mL BSA. As to conditions: both partners purified.

Data set [15] concerns the target T2, GluK5 amino terminal domain (ATD), DyLight 488-labeled.
T2 sequence (Q63273 whole entry, species assumed, looked up): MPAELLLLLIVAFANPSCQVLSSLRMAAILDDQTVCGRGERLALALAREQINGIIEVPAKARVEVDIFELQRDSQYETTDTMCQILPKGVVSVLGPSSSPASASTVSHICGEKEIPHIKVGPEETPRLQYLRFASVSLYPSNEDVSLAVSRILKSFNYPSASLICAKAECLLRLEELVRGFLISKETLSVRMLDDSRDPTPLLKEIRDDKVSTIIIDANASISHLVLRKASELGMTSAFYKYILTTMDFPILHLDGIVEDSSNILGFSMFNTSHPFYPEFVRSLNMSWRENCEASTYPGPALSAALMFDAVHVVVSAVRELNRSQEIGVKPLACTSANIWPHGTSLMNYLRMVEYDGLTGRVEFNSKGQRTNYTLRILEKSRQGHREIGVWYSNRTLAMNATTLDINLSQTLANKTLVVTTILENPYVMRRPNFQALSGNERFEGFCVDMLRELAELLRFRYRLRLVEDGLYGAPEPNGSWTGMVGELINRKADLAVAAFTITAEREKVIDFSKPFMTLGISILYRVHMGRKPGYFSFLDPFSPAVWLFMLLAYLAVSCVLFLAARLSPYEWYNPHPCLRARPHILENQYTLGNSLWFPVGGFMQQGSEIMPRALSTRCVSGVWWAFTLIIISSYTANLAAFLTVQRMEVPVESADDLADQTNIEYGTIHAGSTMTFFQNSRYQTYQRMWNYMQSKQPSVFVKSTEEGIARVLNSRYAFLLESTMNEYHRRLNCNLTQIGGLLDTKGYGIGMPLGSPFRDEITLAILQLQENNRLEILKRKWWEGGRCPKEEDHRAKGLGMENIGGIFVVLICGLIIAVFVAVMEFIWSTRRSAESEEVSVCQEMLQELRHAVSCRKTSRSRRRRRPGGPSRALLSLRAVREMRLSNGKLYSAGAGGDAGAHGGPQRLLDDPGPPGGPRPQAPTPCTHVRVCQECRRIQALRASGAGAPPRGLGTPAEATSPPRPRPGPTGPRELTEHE
Kind of data set: AUC; FDS-SV titration for hetero-dimerization: constant low concentration (50 pM-1 nM) of the ATD carrying the fluorophore, unlabeled partner from 0.2 nM up to µM; sw isotherm fit with coupled competitive homo- and hetero-dimerization model, homodimer KD fixed; 20 °C, 50,000 rpm, 0.1 mg/mL BSA.

Data set [16] deals with the molecule itself. Kind of data set: AUC; FDS-SV, dilution series of the fluorescent protein alone (DyLight 488-GluK3 50 pM-1.2 µM; EGFP-GluA1 100 pM-1.2 µM; EGFP-GluA4 500 pM-1.2 µM); c(s) and sw isotherm, monomer-dimer model (dimer to monomers); 20 °C, 50,000 rpm, 0.1 mg/mL BSA. The source holds these as a separate data set.
Data set [17] deals with the molecule itself. Described as above. The source holds these as a separate data set.

As for “GluA2 amino terminal domain (ATD), unlabeled (domain or fragment)”, the Kd in [1] was 0.0211 µM; in [3], 0.0029 µM. The koff in data set [2] was above 0.003 s⁻¹. Also, the association rate constant (kon) in data set [2] was above 140000 M⁻¹ s⁻¹.

“GluK5 amino terminal domain (ATD), unlabeled (domain or fragment)”: the Kd in [4] was 0.018 µM; in data set [5] it was 0.012 µM.

Molecule “GluA3 amino terminal domain (ATD), unlabeled (domain or fragment)” yielded a koff in [6] above 0.003 s⁻¹. Moreover, the Kd in [3] turned out to be 0.0083 µM; in data set [7] it was 0.091 µM; in data set [8], 0.0013 µM.

For “GluK4 amino terminal domain (ATD), unlabeled (from UniProt Q01812 21-399) (domain or fragment)”, the Kd was above 1000 µM in data set [9], 0.146 µM in [4] and 0.057 µM in data set [5].

Take GluK5 ATD (from UniProt Q63273): the dissociation constant (Kd) in [10] was 350 µM.

Turning to GluK2 ATD (from UniProt P42260), the Kd in data set [11] is 0.25 µM.

On to “GluK1 amino terminal domain (ATD) G213N/M215T, unlabeled (domain or fragment)”, for which the Kd in data set [12] is 1.2 µM.

B1: EGFP-GluA1 amino terminal domain fusion protein (domain or fragment, UniProt P19490 19-21, looked up)
chain: VGANFPNNIQIGGLFPNQQSQEHAAFRFALSQLTEPPKLLPQIDIVNISDSFEMTYRFCSQFSKGVYAIFGFYERRTVNMLTSFCGALHVCFITPSFPVDTSNQFVLQLRPELQEALISIIDHYKWQTFVYIYDADRGLSVLQRVLDTAAEKNWQVTAVNILTTTEEGYRMLFQDLEKKKERLVVVDCESERLNAILGQIVKLEKNGIGYHYILANLGFMDIDLNKFKESGANVTGFQLVNYTDTIPARIMQQWRTSDSRDHTRVDWKRPKYTSALTYDGVKVMAEAFQSLRRQRIDISRRGNAGDCLANPAVPWGQGIDIQRALQQVRFEGLTGNVQFNEKGRRTNYTLHVIEMKHDGIRKIGYWNEDDKFVPAATDAQAGGDNSSVQ
notes: signal peptide in the construct; GluA1 signal peptide and ATD, residues Met1-Phe21, before SGSG-EGFP; GluA1 AMPA receptor ATD, residues Val17-Gln405, after EGFP-SGSG; The two printed ranges overlap (17-21); also called GluA1 ATD-EGFP; GluA1-EGFP fusion protein; source: Sf9 insect cells, baculovirus (pFastBac1), secreted into medium; purified (Ni2+ HiTrap chelating, thrombin digestion, ion …)
In the case of B1, binding in data set [13] was put at a Kd of 0.0284 µM.

B2: GluK2 amino terminal domain (ATD) G215N/M217T, unlabeled (domain or fragment, UniProt P42260 32-420, looked up)
chain: TTHVLRFGGIFEYVESGPMGAEELAFRFAVNTINRNRTLLPNTTLTYDTQKINLYDSFEASKKACDQLSLGVAAIFGPSHSSSANAVQSICNALGVPHIQTRWKHQVSDNKDSFYVSLYPDFSSLSRAILDLVQFFKWKTVTVVYDDSTGLIRLQELIKAPSRYNLRLKIRQLPADTKDAKPLLKEMKRGKEFHVIFDCSHEMAAGILKQALAMNMTTEYYHYIFTTLDLFALDVEPYRYSGVNMTGFRILNTENTQVSSIIEKWSMERLQAPPKPDSGLLDGFMTTDAALMYDAVHVVSVAVQQFPQMTVSSLQCNRHKPWRFGTRFMSLIKEAHWEGLTGRITFNKTNGLRTDFDLDVISLKEEGLEKIGTWDPASGLNMTESQKGK
notes: signal peptide in the construct; GluK2 kainate receptor ATD cDNA with native signal peptide, last residue Lys389; N-linked glycosylation site inserted in the lateral face; also called UL GluK2; GluK2 ATD; source: HEK cell suspension cultures, transient transfection (PEI), secreted into medium; purified (Ni2+ HiTrap chelating, thrombin digestion, ion exchange)
Consider B2, for which the Kd was 0.163 µM in data set [14], 1.8 µM in data set [4] and 0.0094 µM in [15].

B3: GluK3 amino terminal domain (ATD) T221N/Y223S, DyLight 488-labeled (domain or fragment, UniProt P42264 32-423, looked up)
chain: MPHVIRIGGIFEYADGPNAQVMNAEEHAFRFSANIINRNRTLLPNTTLTYDIQRIHFHDSFEATKKACDQLALGVVAIFGPSQGSCTNAVQSICNALEVPHIQLRWKHHPLDNKDTFYVNLYPDYASLSHAILDLVQSLKWRSATVVYDDSTGLIRLQELIMAPSRYNIRLKIRQLPIDSDDSRPLLKEMKRGREFRIIFDCSHTMAAQILKQAMAMGMMNESYHFIFTTLDLYALDLEPYRYSGVNLTGFRILNVDNAHVSAIVEKWSMERLQAAPRAESGLLDGVMMTDAALLYDAVHIVSVCYQRASQMTVNSLQCHRHKPWRFGGRFMNFIKEAQWEGLTGRIVFNKTSGLRTDFDLDIISLKEDGLEKVGVWSPADGLNITEVAKGR
modifications: DyLight 488 (NHS ester-activated), labeling ratios typically 0.9-1.3, sites not stated
notes: signal peptide in the construct; GluK3 kainate receptor ATD cDNA with native signal peptide, last residue Arg392; N-linked glycosylation site inserted in the lateral face; also called DL-GluK3; DL GluK3; source: HEK cell suspension cultures, transient transfection (PEI), secreted into medium; purified (Ni2+ HiTrap chelating, thrombin digestion, ion exchange); labeled, Superdex 75
As for B3, the “stoichiometry N” value in data set [16] came to 2. The molecule further yielded a Kd in [17] below 0.05 nM.
